B1: CE115HA000 L78I one-arm antibody (antibody, human IgG1, kappa, L234A L235A, N297A, name in Kabat numbering)
heavy: QVQLVESGGGVVQPGRSLRLSCAASGFTFSNAWMHWVRQAPGKGLEWVAQIKAKSNNYATYYAESVKGRFTISRDDSKNSIYLQMNSLKTEDTAVYYCRYVHYGAYYGVDAWGQGTTVTVSSASTKGPSVFPLAPSSKSTSGGTAALGCLVKDYFPEPVTVSWNSGALTSGVHTFPAVLQSSGLYSLSSVVTVPSSSLGTQTYICNVNHKPSNTKVDKKVEPKSCDKTHTCPPCPAPEAAGGPSVFLFPPKPKDTLMISRTPEVTCVVVDVSHEDPEVKFNWYVDGVEVHNAKTKPREEQYASTYRVVSVLTVLHQDWLNGKEYKCKVSNKALPAPIEKTISKAKGQPREPQVYTLPPSRCELTKNQVSLSCAVKGFYPSDIAVEWESNGQPENNYKTTPPVLDSDGSFFLVSKLTVDKSRWQQGNVFSCSVMHEALHNHYTQKSLSLSPDYKDDDDK
chain: EPKSSDKTHTCPPCPAPELLGGPSVFLFPPKPKDTLMISRTPEVTCVVVDVSHEDPEVKFNWYVDGVEVHNAKTKPREEQYNSTYRVVSVLTVLHQDWLNGKEYKCKVSNKALPAPIEKTISKAKGQPREPQVCTLPPSRDELTKNQVSLWCLVKGFYPSDIAVEWESNGQPENNYKTTPPVLDSDGSFFLYSKLTVDKSRWQQGNVFSCSVMHEALHNRYTQKSLSLSP
light: DIVMTQSPLSLPVTPGEPASISCRSSQSLVHSNRNTYLHWYQQKPGQAPRLLIYKVSNRFSGVPDRFSGSGSGTDFTLKISRVEAEDVGVYYCGQGTQVPYTFGQGTKLEIKRTVAAPSVFIFPPSDEQLKSGTASVVCLLNNFYPREAKVQWKVDNALQSGNSQESVTEQDSKDSTYSLSSTLTLSKADYEKHKVYACEVTHQGLSSPVTKSFNRGEC
notes: one-arm antibody (one Fab)
B2: CE115HA000 N54L one-arm antibody (antibody, human IgG1, kappa, L234A L235A, N297A, name in Kabat numbering)
heavy: QVQLVESGGGVVQPGRSLRLSCAASGFTFSNAWMHWVRQAPGKGLEWVAQIKAKSNLYATYYAESVKGRFTISRDDSKNSLYLQMNSLKTEDTAVYYCRYVHYGAYYGVDAWGQGTTVTVSSASTKGPSVFPLAPSSKSTSGGTAALGCLVKDYFPEPVTVSWNSGALTSGVHTFPAVLQSSGLYSLSSVVTVPSSSLGTQTYICNVNHKPSNTKVDKKVEPKSCDKTHTCPPCPAPEAAGGPSVFLFPPKPKDTLMISRTPEVTCVVVDVSHEDPEVKFNWYVDGVEVHNAKTKPREEQYASTYRVVSVLTVLHQDWLNGKEYKCKVSNKALPAPIEKTISKAKGQPREPQVYTLPPSRCELTKNQVSLSCAVKGFYPSDIAVEWESNGQPENNYKTTPPVLDSDGSFFLVSKLTVDKSRWQQGNVFSCSVMHEALHNHYTQKSLSLSPDYKDDDDK
chain: EPKSSDKTHTCPPCPAPELLGGPSVFLFPPKPKDTLMISRTPEVTCVVVDVSHEDPEVKFNWYVDGVEVHNAKTKPREEQYNSTYRVVSVLTVLHQDWLNGKEYKCKVSNKALPAPIEKTISKAKGQPREPQVCTLPPSRDELTKNQVSLWCLVKGFYPSDIAVEWESNGQPENNYKTTPPVLDSDGSFFLYSKLTVDKSRWQQGNVFSCSVMHEALHNRYTQKSLSLSP
light: DIVMTQSPLSLPVTPGEPASISCRSSQSLVHSNRNTYLHWYQQKPGQAPRLLIYKVSNRFSGVPDRFSGSGSGTDFTLKISRVEAEDVGVYYCGQGTQVPYTFGQGTKLEIKRTVAAPSVFIFPPSDEQLKSGTASVVCLLNNFYPREAKVQWKVDNALQSGNSQESVTEQDSKDSTYSLSSTLTLSKADYEKHKVYACEVTHQGLSSPVTKSFNRGEC
notes: one-arm antibody (one Fab)
B3: CE115HA000 N53S one-arm antibody (antibody, human IgG1, kappa, L234A L235A, N297A, name in Kabat numbering)
heavy: QVQLVESGGGVVQPGRSLRLSCAASGFTFSNAWMHWVRQAPGKGLEWVAQIKAKSSNYATYYAESVKGRFTISRDDSKNSLYLQMNSLKTEDTAVYYCRYVHYGAYYGVDAWGQGTTVTVSSASTKGPSVFPLAPSSKSTSGGTAALGCLVKDYFPEPVTVSWNSGALTSGVHTFPAVLQSSGLYSLSSVVTVPSSSLGTQTYICNVNHKPSNTKVDKKVEPKSCDKTHTCPPCPAPEAAGGPSVFLFPPKPKDTLMISRTPEVTCVVVDVSHEDPEVKFNWYVDGVEVHNAKTKPREEQYASTYRVVSVLTVLHQDWLNGKEYKCKVSNKALPAPIEKTISKAKGQPREPQVYTLPPSRCELTKNQVSLSCAVKGFYPSDIAVEWESNGQPENNYKTTPPVLDSDGSFFLVSKLTVDKSRWQQGNVFSCSVMHEALHNHYTQKSLSLSPDYKDDDDK
chain: EPKSSDKTHTCPPCPAPELLGGPSVFLFPPKPKDTLMISRTPEVTCVVVDVSHEDPEVKFNWYVDGVEVHNAKTKPREEQYNSTYRVVSVLTVLHQDWLNGKEYKCKVSNKALPAPIEKTISKAKGQPREPQVCTLPPSRDELTKNQVSLWCLVKGFYPSDIAVEWESNGQPENNYKTTPPVLDSDGSFFLYSKLTVDKSRWQQGNVFSCSVMHEALHNRYTQKSLSLSP
light: DIVMTQSPLSLPVTPGEPASISCRSSQSLVHSNRNTYLHWYQQKPGQAPRLLIYKVSNRFSGVPDRFSGSGSGTDFTLKISRVEAEDVGVYYCGQGTQVPYTFGQGTKLEIKRTVAAPSVFIFPPSDEQLKSGTASVVCLLNNFYPREAKVQWKVDNALQSGNSQESVTEQDSKDSTYSLSSTLTLSKADYEKHKVYACEVTHQGLSSPVTKSFNRGEC
notes: one-arm antibody (one Fab)
B4: CE115HA000 N53Y one-arm antibody (antibody, human IgG1, kappa, L234A L235A, N297A, name in Kabat numbering)
heavy: QVQLVESGGGVVQPGRSLRLSCAASGFTFSNAWMHWVRQAPGKGLEWVAQIKAKSYNYATYYAESVKGRFTISRDDSKNSLYLQMNSLKTEDTAVYYCRYVHYGAYYGVDAWGQGTTVTVSSASTKGPSVFPLAPSSKSTSGGTAALGCLVKDYFPEPVTVSWNSGALTSGVHTFPAVLQSSGLYSLSSVVTVPSSSLGTQTYICNVNHKPSNTKVDKKVEPKSCDKTHTCPPCPAPEAAGGPSVFLFPPKPKDTLMISRTPEVTCVVVDVSHEDPEVKFNWYVDGVEVHNAKTKPREEQYASTYRVVSVLTVLHQDWLNGKEYKCKVSNKALPAPIEKTISKAKGQPREPQVYTLPPSRCELTKNQVSLSCAVKGFYPSDIAVEWESNGQPENNYKTTPPVLDSDGSFFLVSKLTVDKSRWQQGNVFSCSVMHEALHNHYTQKSLSLSPDYKDDDDK
chain: EPKSSDKTHTCPPCPAPELLGGPSVFLFPPKPKDTLMISRTPEVTCVVVDVSHEDPEVKFNWYVDGVEVHNAKTKPREEQYNSTYRVVSVLTVLHQDWLNGKEYKCKVSNKALPAPIEKTISKAKGQPREPQVCTLPPSRDELTKNQVSLWCLVKGFYPSDIAVEWESNGQPENNYKTTPPVLDSDGSFFLYSKLTVDKSRWQQGNVFSCSVMHEALHNRYTQKSLSLSP
light: DIVMTQSPLSLPVTPGEPASISCRSSQSLVHSNRNTYLHWYQQKPGQAPRLLIYKVSNRFSGVPDRFSGSGSGTDFTLKISRVEAEDVGVYYCGQGTQVPYTFGQGTKLEIKRTVAAPSVFIFPPSDEQLKSGTASVVCLLNNFYPREAKVQWKVDNALQSGNSQESVTEQDSKDSTYSLSSTLTLSKADYEKHKVYACEVTHQGLSSPVTKSFNRGEC
notes: one-arm antibody (one Fab)
B5: CE115HA000 N53W one-arm antibody (antibody, human IgG1, kappa, L234A L235A, N297A, name in Kabat numbering)
heavy: QVQLVESGGGVVQPGRSLRLSCAASGFTFSNAWMHWVRQAPGKGLEWVAQIKAKSWNYATYYAESVKGRFTISRDDSKNSLYLQMNSLKTEDTAVYYCRYVHYGAYYGVDAWGQGTTVTVSSASTKGPSVFPLAPSSKSTSGGTAALGCLVKDYFPEPVTVSWNSGALTSGVHTFPAVLQSSGLYSLSSVVTVPSSSLGTQTYICNVNHKPSNTKVDKKVEPKSCDKTHTCPPCPAPEAAGGPSVFLFPPKPKDTLMISRTPEVTCVVVDVSHEDPEVKFNWYVDGVEVHNAKTKPREEQYASTYRVVSVLTVLHQDWLNGKEYKCKVSNKALPAPIEKTISKAKGQPREPQVYTLPPSRCELTKNQVSLSCAVKGFYPSDIAVEWESNGQPENNYKTTPPVLDSDGSFFLVSKLTVDKSRWQQGNVFSCSVMHEALHNHYTQKSLSLSPDYKDDDDK
chain: EPKSSDKTHTCPPCPAPELLGGPSVFLFPPKPKDTLMISRTPEVTCVVVDVSHEDPEVKFNWYVDGVEVHNAKTKPREEQYNSTYRVVSVLTVLHQDWLNGKEYKCKVSNKALPAPIEKTISKAKGQPREPQVCTLPPSRDELTKNQVSLWCLVKGFYPSDIAVEWESNGQPENNYKTTPPVLDSDGSFFLYSKLTVDKSRWQQGNVFSCSVMHEALHNRYTQKSLSLSP
light: DIVMTQSPLSLPVTPGEPASISCRSSQSLVHSNRNTYLHWYQQKPGQAPRLLIYKVSNRFSGVPDRFSGSGSGTDFTLKISRVEAEDVGVYYCGQGTQVPYTFGQGTKLEIKRTVAAPSVFIFPPSDEQLKSGTASVVCLLNNFYPREAKVQWKVDNALQSGNSQESVTEQDSKDSTYSLSSTLTLSKADYEKHKVYACEVTHQGLSSPVTKSFNRGEC
notes: one-arm antibody (one Fab)
B6: CE115HA000 N53Q one-arm antibody (antibody, human IgG1, kappa, L234A L235A, N297A, name in Kabat numbering)
heavy: QVQLVESGGGVVQPGRSLRLSCAASGFTFSNAWMHWVRQAPGKGLEWVAQIKAKSQNYATYYAESVKGRFTISRDDSKNSLYLQMNSLKTEDTAVYYCRYVHYGAYYGVDAWGQGTTVTVSSASTKGPSVFPLAPSSKSTSGGTAALGCLVKDYFPEPVTVSWNSGALTSGVHTFPAVLQSSGLYSLSSVVTVPSSSLGTQTYICNVNHKPSNTKVDKKVEPKSCDKTHTCPPCPAPEAAGGPSVFLFPPKPKDTLMISRTPEVTCVVVDVSHEDPEVKFNWYVDGVEVHNAKTKPREEQYASTYRVVSVLTVLHQDWLNGKEYKCKVSNKALPAPIEKTISKAKGQPREPQVYTLPPSRCELTKNQVSLSCAVKGFYPSDIAVEWESNGQPENNYKTTPPVLDSDGSFFLVSKLTVDKSRWQQGNVFSCSVMHEALHNHYTQKSLSLSPDYKDDDDK
chain: EPKSSDKTHTCPPCPAPELLGGPSVFLFPPKPKDTLMISRTPEVTCVVVDVSHEDPEVKFNWYVDGVEVHNAKTKPREEQYNSTYRVVSVLTVLHQDWLNGKEYKCKVSNKALPAPIEKTISKAKGQPREPQVCTLPPSRDELTKNQVSLWCLVKGFYPSDIAVEWESNGQPENNYKTTPPVLDSDGSFFLYSKLTVDKSRWQQGNVFSCSVMHEALHNRYTQKSLSLSP
light: DIVMTQSPLSLPVTPGEPASISCRSSQSLVHSNRNTYLHWYQQKPGQAPRLLIYKVSNRFSGVPDRFSGSGSGTDFTLKISRVEAEDVGVYYCGQGTQVPYTFGQGTKLEIKRTVAAPSVFIFPPSDEQLKSGTASVVCLLNNFYPREAKVQWKVDNALQSGNSQESVTEQDSKDSTYSLSSTLTLSKADYEKHKVYACEVTHQGLSSPVTKSFNRGEC
notes: one-arm antibody (one Fab)

T1 sequence (P07766 23-126): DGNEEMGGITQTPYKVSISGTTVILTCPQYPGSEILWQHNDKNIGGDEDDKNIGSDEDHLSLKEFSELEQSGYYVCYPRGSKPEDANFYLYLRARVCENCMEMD

The assay has as its target T1, CD3 epsilon homodimer protein (UniProt P07766 23-126).
T1 construct: Immobilized on Sensor chip CM4 by amine coupling; construct not described; also called CD3 (CD3 epsilon)
The assay can be described thus: SPR Biacore T200, CD3 epsilon homodimer on CM4 chip, antibody as analyte.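 Note: Amine-coupled CD3 epsilon homodimer, run at 25 °C in HBS-EP+ buffer, ratio is bound amount of each single-residue H chain variant over that of the parent antibody.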
In the case of B1, the “ratio of amounts bound (Y/X vs CE115HA000)” value (shortened to “ratio of amounts bound”) amounted to 1.34.
As to B2, the “ratio of amounts bound” value came to 0.94.
Regarding B3, the “ratio of amounts bound” value was found to be 0.83.
The same measure for B4: 0.63; for B5: 0.88; for B6: 1.1.
